Experiments:
MEC monolayers = test: FITC Transwell permeability assay; format: cell-based, human; details: single agent alone; FITC-Dextran 40 kDa, three hours
Description: The integrity of these junctions is also important for the regulation of monolayer permeability by controlling the size of intercellular openings. The effect of the AXT107 on EC permeability was further investigated by the transendothelial diffusion of FITC-labeled dextran across MEC monolayers seeded onto permeable Transwell® substrates.
(§1) Human dermal microvascular endothelial cells (Lonza) were maintained at 37° C. and 5% CO2 in EBM-2MV medium (Lonza) and used between passages two through seven. Where applicable, cells were serum starved in EBM-2 medium (Lonza) with no supplements. For FITC-Dextran permeability assays phenol red-free media were used to avoid auto-fluorescence. AXT107 were manufactured at New England Peptide by […], lyophilized, and dissolved in 100% DMSO.
Transwell, twenty-four-well inserts (Corning) were coated with 7.5 μg/cm^2 FN1 for two hours at 37° C., aspirated, and then dried for thirty minutes at room temperature. Wells were then seeded with 7.5×10^4 MECs in 100 μl of EBM-2 media (without phenol red) and allowed to settle for thirty minutes at room temperature. 1 ml of EGM-2 media was then added to the bottom chamber and an additional 200 μl to the top chamber. The plate was incubated for twenty-four hours at 37° C. after which the media was aspirated and an additional 7.5×10^4 MECs were plated in each well as described above. After forty-eight hours at 37° C., the media was aspirated from both chambers and the cells were washed twice in dPBS containing Ca^2+ and Mg^2+, once with EBM-2 media (without phenol red) and serum starved in EBM-2 media applied to both chambers for two hours at 37° C. After this incubation, 100 μM AXT107 or an equivalent amount of DMSO vehicle was added and incubated for an additional ninety minutes. In the top chamber, the cells were then treated with 200 ng/ml Ang2, 100 ng/ml VEGFA, both, or PBS control and in the bottom chamber, the cells were then treated with 25 μg/ml FITC-Dextran (40 kDa MW). AXT107 was also added in both chambers to maintain a concentration of 100 μM. After three hours, 10 μl was removed from the top chamber of each well and mixed with 90 μl of water in a clear bottom, 96-well plate. Fluorescence values for each sample were calculated using a Perkin Elmer plate reader.

Tie2 = test: Western blot of MEC lysates, Ang1/2 signaling: Tie2 phosphorylation; format: cell-based, human; details: ligand alone, no AXT107
Description: To investigate the effects of the integrin inhibitor AXT107 on Tie2 signaling, confluent monolayers of microvascular endothelial cells (MECs) on fibronectin-coated dishes were treated with various concentrations of AXT107 followed by exposure to the Tie2 ligands Ang1 or Ang2.
as §1
For Ang1/2 signaling investigations, cell culture dishes (10 cm diameter) were coated with 5 μg/ml fibronectin (FN1; Sigma-Aldrich, St. Louis, Mo.) for two hours at 37° C. The FN1 solution was then removed by aspiration and 5×10^6 microvascular endothelial cells (MECs; Lonza, Walkersville, Md.) were plated in EGM-2MV media (Lonza) and cultured for forty-eight hours at 37° C. The cells were then serum starved for sixteen hours in serum-free EGM-2 base media (Lonza). AXT107 (0-100 μM, as indicated) was subsequently added to each culture and incubated for seventy-five minutes at 37° C. The cultures were then treated with 1 mM sodium vanadate (New England Biolabs, Ipswich, Mass.) for fifteen minutes to enhance the phospho-Tie2 signal followed by stimulation with 200 ng/ml angiopoietin (R&D Systems, Minneapolis, Minn.) for an additional fifteen minutes. The cells were then transferred to ice, washed twice with ice cold Dulbecco's phosphate-buffered saline (dPBS) containing Ca^2+ and Mg^2+, and collected by scraping in 500 μl of 1× Blue Loading Buffer (Cell Signaling, Danvers, Mass.). Lysate samples were then sonicated, boiled, and resolved by SDS-PAGE. Specific proteins were identified by Western blot, using the following primary antibodies: Cell Signaling—phospho-Tie2 (Y992) (Cat #: 4221), Tie2 (Cat #: 7403), phospho-Stat3 (Y705) (Cat #: 4113), Stat3 (Cat #: 4904), phospho-Akt (S473) (Cat #: 4058), Akt (Cat #: 9272), phospho-p44/42 MAPK (T202/Y204) (Cat #: 4370), p44/42 MAPK (Cat #: 4695); BD Transduction Laboratories—β1 integrin (Cat #: 610467); Millipore—α5 integrin (Cat #: AB1928) and detected with HRP-conjugated goat anti-rabbit and sheep anti-mouse secondary antibodies (GE healthcare).

## VEGF [reference compound]
MEC monolayers
  FITC-dextran diffusion across the monolayer, agent alone: appeared to increase permeability (although non-significantly)

B1: Ang2: angiopoietin 2, Tie2 ligand (protein)
chain: YNNFRKSMDSIGKKQYQVQHGSCSYTFLLPEMDNCRSSSSPYVSNAVQRDAPLEYDDSVQRLQVLENIMENNTQWLMKLENYIQDNMKKEMVEIQQNAVQNQTAVMIEIGTNLLNQTAEQTRKLTDVEAQVLNQTTRLELQLLEHSLSTNKLEKQILDQTSEINKLQDKNSFLEKKVLAMEDKHIIQLQSIKEEKDQLQVLVSKQNSIIEELEKKIVTATVNNSVLQKQQHDLMETVNNLLTMMSTSNSAKDPTVAKEEQISFRDCAEVFKSGHTTNGIYTLTFPNSTEEIKAYCDMEAGGGGWTIIQRREDGSVDFQRTWKEYKVGFGNPSGEYWLGNEFVSQLTNQQRYVLKIHLKDWEGNEAYSLYEHFYLSSEELNYRIHLKGLTGTAGKISSISQPGNDFSTKDGDNDKCICKCSQMLTGGWWFDACGPSNLNGMYYPQRQNTNKFNGIKWYYWKGSGYSLKATTMMIRPADF
Tie2
  Tie2 phosphorylation by ligand alone: insignificant effects by itself
MEC monolayers
  FITC-dextran diffusion across the monolayer, agent alone: influenced FITC-dextran diffusion across the monolayer

B2: Ang1: angiopoietin 1, Tie2 ligand (protein)
chain: SNQRRSPENSGRRYNRIQHGQCAYTFILPEHDGNCRESTTDQYNTNALQRDAPHVEPDFSSQKLQHLEHVMENYTQWLQKLENYIVENMKSEMAQIQQNAVQNHTATMLEIGTSLLSQTAEQTRKLTDVETQVLNQTSRLEIQLLENSLSTYKLEKQLLQQTNEILKIHEKNSLLEHKILEMEGKHKEELDTLKEEKENLQGLVTRQTYIIQELEKQLNRATTNNSVLQKQQLELMDTVHNLVNLCTKEGVLLKGGKREEEKPFRDCADVYQAGFNKSGIYTIYINNMPEPKKVFCNMDVNGGGWTVIQHREDGSLDFQRGWKEYKMGFGNPSGEYWLGNEFIFAITSQRQYMLRIELMDWEGNRAYSQYDRFHIGNEKQNYRLYLKGHTGTAGKQSSLILHGADFSTKDADNDNCMCKCALMLTGGWWFDACGPSNLNGMFYTAGQNHGKLNGIKWHYFKGPSYSLRSTTMMIRPLDF
Tie2
  Tie2 phosphorylation by ligand alone: induced phosphorylation of Tie2
